Data reported in patent US20220155286.

Key:
[1] = target: MTH1-3aa-S-tag fusion protein
[2] = target: MTH1-10aa-S-tag fusion protein
[3] = target: BCL6 (B-Cell Lymphoma 6) S-Peptide micro-tag construct
[4] = target: MTH1-S-tag fusion protein (no linker between MTH1 and the S-tag peptide)

B1: His tagged RNase donor protein (S protein) (protein)
chain: MSSSNYCNQMMKSRNLTKDRCKPVNTFVHESLADVQAVCSQKNVACKNGQTNCYQSYSTMSITDCRETGSSKYPNCAYKTTQANKHIIVACEGNPYVPVHFDASVHHHHHH
S protein concentration at which the fluorescent signal starts to saturate [1]: S protein concentration started to saturate signal at about 1-2 ng/ul S protein | fluorescence increase (RLU change per minute) [1]: detected fluorescence increase that was directly proportional to the amount of micro-tagged protein in the reaction | fluorescent signal (cleavage of the FRET substrate by complemented RNase S), 50 ug lysate, thermal gradient [1]: there was no significant effect of spacer length on fluorescent signal | kinetic trace of the S-tag (Micro-tag) fluorescence signal over 20 minutes [1]: A kinetic trace of the development of the S-tag (Micro-tag) fluorescence signal over the course of 20 minutes | S protein concentration at which the fluorescent signal starts to saturate [2]: S protein concentration started to saturate signal at about 1-2 ng/ul S protein | fluorescent signal (cleavage of the FRET substrate by complemented RNase S), 50 ug lysate, thermal gradient [2]: there was no significant effect of spacer length on fluorescent signal | fluorescence signal (RLU/min) after heat challenge [3]: the micro-tag construct was denatured in the heat challenge and there was less micro-tag available for enzyme complementation resulting in lower fluorescence signal | S protein concentration at which the fluorescent signal starts to saturate [4]: S protein concentration started to saturate signal at about 1-2 ng/ul S protein | fluorescent signal (cleavage of the FRET substrate by complemented RNase S), 50 ug lysate, thermal gradient [4]: there was no significant effect of spacer length on fluorescent signal
